According to PMC12436637:

Target: low-density lipoprotein receptor LRP1 on human iPSC-derived cortical excitatory neurons (human (endogenous in iPSC-derived neurons)) (UniProt Q07954)
Sequence of UniProt Q07954 (Q07954 20-4544): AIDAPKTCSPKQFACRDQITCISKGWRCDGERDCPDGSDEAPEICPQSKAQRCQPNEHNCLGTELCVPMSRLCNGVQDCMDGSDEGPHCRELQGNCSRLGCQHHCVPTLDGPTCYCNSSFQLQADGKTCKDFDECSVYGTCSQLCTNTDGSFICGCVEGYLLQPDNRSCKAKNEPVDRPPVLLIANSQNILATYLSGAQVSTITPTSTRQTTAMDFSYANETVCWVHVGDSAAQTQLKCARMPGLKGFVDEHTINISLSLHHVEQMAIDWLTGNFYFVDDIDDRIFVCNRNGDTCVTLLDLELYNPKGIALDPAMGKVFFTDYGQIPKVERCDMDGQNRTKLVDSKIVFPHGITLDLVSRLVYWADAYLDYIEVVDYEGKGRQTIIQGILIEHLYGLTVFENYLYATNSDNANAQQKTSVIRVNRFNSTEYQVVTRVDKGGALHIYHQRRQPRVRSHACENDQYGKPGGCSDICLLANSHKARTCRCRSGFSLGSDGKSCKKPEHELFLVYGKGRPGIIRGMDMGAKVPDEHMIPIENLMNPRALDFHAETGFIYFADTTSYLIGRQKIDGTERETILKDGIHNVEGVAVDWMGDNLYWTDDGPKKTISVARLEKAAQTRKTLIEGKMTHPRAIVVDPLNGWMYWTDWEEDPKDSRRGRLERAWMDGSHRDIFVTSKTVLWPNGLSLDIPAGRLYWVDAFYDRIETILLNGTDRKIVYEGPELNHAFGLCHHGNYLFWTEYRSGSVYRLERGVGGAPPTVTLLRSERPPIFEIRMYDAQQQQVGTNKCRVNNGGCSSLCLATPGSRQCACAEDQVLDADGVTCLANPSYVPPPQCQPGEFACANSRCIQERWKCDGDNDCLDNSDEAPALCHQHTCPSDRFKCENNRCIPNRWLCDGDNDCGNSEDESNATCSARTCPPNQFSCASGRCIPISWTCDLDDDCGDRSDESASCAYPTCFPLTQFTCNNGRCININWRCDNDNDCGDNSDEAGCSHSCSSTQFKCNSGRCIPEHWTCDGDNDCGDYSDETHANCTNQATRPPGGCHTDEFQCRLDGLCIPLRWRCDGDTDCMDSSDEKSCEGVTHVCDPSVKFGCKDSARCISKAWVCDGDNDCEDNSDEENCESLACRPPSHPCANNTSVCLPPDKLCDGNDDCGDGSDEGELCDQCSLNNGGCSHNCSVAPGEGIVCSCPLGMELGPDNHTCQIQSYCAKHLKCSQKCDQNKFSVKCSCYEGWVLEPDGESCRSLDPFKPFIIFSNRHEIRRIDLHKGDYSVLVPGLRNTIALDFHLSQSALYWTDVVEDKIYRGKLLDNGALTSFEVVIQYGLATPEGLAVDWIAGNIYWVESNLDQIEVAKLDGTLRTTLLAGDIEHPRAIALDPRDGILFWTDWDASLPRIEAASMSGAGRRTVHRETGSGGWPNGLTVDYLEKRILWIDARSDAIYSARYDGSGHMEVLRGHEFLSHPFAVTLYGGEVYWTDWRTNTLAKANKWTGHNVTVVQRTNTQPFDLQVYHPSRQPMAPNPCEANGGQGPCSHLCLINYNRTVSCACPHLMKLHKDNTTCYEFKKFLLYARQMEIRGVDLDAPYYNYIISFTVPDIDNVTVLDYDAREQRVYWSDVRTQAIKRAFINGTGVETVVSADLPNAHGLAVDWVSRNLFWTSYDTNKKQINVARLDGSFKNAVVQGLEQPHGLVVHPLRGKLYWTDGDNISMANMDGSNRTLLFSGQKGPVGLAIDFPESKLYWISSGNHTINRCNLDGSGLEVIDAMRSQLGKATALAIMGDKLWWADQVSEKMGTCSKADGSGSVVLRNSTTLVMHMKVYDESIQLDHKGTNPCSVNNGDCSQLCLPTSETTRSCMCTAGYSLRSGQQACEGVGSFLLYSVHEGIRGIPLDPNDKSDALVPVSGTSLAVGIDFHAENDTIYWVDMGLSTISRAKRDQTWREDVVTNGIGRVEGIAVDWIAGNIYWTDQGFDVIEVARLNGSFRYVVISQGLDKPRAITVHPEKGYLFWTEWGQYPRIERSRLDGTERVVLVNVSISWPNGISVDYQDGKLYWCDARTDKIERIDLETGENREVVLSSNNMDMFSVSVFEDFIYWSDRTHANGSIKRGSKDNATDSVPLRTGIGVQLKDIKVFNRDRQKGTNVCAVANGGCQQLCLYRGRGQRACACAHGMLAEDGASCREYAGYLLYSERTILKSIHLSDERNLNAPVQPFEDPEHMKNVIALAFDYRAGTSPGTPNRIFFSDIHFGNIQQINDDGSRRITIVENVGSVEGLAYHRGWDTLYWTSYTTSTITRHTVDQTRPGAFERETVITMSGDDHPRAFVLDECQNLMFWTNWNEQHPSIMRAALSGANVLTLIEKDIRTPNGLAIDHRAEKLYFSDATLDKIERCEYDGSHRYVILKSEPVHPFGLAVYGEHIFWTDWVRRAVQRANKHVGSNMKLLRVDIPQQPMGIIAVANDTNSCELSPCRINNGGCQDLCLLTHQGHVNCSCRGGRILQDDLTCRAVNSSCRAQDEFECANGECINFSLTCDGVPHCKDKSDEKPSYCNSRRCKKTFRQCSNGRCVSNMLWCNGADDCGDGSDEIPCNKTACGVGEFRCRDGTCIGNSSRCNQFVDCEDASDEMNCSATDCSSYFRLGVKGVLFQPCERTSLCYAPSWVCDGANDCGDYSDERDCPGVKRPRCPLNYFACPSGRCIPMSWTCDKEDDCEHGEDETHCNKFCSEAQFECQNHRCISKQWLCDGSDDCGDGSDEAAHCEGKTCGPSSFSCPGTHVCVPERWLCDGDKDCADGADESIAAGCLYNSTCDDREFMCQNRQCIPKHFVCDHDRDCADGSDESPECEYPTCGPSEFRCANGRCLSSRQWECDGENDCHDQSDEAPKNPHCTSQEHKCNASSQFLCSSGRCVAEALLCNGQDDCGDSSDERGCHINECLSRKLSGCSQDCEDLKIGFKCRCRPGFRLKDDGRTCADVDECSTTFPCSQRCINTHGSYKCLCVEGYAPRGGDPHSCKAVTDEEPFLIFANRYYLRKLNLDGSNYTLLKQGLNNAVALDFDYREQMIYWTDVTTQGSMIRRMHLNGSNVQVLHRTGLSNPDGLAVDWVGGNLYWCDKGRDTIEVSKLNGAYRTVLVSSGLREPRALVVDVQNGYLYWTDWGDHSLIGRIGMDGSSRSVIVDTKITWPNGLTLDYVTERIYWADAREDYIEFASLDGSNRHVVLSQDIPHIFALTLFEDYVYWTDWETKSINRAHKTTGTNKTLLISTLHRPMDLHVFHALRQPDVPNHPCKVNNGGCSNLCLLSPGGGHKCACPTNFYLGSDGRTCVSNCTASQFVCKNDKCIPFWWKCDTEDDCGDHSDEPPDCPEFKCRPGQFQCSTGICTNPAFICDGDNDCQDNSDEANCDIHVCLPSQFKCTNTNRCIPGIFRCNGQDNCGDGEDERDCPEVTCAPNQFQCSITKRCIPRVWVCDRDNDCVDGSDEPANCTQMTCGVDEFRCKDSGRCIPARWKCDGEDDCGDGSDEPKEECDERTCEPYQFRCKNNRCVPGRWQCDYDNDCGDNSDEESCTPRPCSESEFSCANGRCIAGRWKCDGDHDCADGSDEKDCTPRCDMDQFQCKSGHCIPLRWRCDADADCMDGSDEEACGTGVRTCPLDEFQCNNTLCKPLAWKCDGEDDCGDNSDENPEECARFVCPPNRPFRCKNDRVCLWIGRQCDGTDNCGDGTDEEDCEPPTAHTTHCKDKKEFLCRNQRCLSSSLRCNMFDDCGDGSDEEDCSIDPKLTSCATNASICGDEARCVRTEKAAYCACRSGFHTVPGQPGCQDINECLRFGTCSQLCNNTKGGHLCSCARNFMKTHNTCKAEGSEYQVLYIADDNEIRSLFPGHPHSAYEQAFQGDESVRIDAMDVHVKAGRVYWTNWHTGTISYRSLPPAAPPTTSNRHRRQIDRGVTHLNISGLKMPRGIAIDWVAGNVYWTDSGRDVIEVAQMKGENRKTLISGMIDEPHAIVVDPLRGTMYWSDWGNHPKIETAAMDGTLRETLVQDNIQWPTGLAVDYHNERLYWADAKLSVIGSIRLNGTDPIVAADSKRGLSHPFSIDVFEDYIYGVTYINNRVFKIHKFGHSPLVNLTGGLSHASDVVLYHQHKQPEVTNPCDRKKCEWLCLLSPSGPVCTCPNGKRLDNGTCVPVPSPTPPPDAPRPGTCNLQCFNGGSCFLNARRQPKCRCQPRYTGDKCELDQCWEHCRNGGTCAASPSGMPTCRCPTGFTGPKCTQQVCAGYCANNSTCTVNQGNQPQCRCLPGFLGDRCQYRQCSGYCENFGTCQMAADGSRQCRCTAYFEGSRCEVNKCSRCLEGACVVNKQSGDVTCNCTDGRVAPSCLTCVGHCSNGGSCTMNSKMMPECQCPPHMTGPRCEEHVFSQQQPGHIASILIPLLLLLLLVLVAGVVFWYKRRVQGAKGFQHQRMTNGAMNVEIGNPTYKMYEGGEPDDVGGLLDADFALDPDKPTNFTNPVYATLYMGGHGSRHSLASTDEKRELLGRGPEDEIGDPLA

- decrease in neuronal uptake of monomeric tau-pHrodo (tau-positive objects, live imaging over 4 h) with 100 nM soluble recombinant LRP1 domain IV (Human LRP1 Cluster IV Fc Chimera, R&D Systems) added: 68%
- neuronal uptake of monomeric tau-pHrodo (tau-positive objects, live imaging over 4 h) with 10 nM RAP chaperone (Human LRPAP Protein, R&D Systems) added to block LDL receptors: 63%
Substance: monomeric tau P301S (tau P301S_FLAG×3_10×his-tag), pHrodo-labelled (natural protein)
